Assay [1] deals with human CD30 expressed on cells (L540, L428, L1236, Karpas cell lines; activated human peripheral blood cells) (human) (UniProt P28908). Nature of the assay: cell-based or functional assay.
Assay [2] shares this target. Nature of the assay: Scatchard analysis, 125I-labelled antibody on L540 cells.
Assay [3] shares this target. Nature of the assay: Scatchard analysis (Bmax), 125I-labelled antibody on L540 cells.
Assay [4] shares this target. Briefly: flow cytometry on CD30-expressing L540 cells, FITC anti-human secondary antibody. On the technique in general: Flow cytometry measures light scatter and fluorescence of single cells or particles in a stream.
For assay [5] the target is unchanged. Briefly: Scatchard analysis (Bmax), 125I-labelled antibody on activated human peripheral blood cells.
Assay [6] shares this target. Briefly: Scatchard analysis, 125I-labelled antibody on PHA/Con A/IL-2 activated human peripheral blood cells.
For assay [7], the target named is cynomolgus CD30 on PHA, Con A and rIL-2 activated cynomolgus peripheral blood mononuclear cells (cynomolgus monkey). Nature of the assay: Scatchard analysis (Bmax), 125I-labelled antibody on activated cynomolgus peripheral blood mononuclear cells.
Assay [8] has the same target. Briefly: Scatchard analysis, 125I-labelled antibody on PHA/Con A/IL-2 activated cynomolgus peripheral blood mononuclear cells.
Assay [9] deals with human FcRgammaIIIa, Phe^158 allotype (human) (UniProt P08637). Nature of the assay: SPR (Biacore): mAb captured on a surface coated with recombinant human CD30, FcRγIIIa Phe158 (CD16-Phe) flowed over, equilibrium signal fitted to a one-site model; Binding Constants (nM). A general note: Surface plasmon resonance follows binding to a sensor surface in real time, without labels.
Chain of human FcRgammaIIIa, Phe^158 allotype (human) (P08637 17-208 limits assumed): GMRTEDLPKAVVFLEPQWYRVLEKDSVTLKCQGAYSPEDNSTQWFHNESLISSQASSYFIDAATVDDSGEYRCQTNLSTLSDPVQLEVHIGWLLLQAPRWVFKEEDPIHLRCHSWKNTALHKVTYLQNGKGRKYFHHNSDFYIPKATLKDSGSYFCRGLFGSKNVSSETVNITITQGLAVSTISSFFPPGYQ
For assay [10], the target named is human FcRgammaIIIa, Val^158 allotype (human) (UniProt P08637). Briefly: SPR (Biacore): mAb captured on a surface coated with recombinant human CD30, FcRγIIIa Val158 (CD16-Val) flowed over, equilibrium signal fitted to a one-site model; Binding Constants (nM).
Chain of human FcRgammaIIIa, Val^158 allotype (human) (P08637 17-208 F176V limits assumed): as the sequence (P08637 17-208 limits assumed) above, with F160V counted along it
Assay [11] concerns the target T1, human CD30 expressed on cells (L540, L428, L1236, Karpas cell lines; activated human peripheral blood cells) (human, UniProt P28908 19-595).
T1 sequence (looked up): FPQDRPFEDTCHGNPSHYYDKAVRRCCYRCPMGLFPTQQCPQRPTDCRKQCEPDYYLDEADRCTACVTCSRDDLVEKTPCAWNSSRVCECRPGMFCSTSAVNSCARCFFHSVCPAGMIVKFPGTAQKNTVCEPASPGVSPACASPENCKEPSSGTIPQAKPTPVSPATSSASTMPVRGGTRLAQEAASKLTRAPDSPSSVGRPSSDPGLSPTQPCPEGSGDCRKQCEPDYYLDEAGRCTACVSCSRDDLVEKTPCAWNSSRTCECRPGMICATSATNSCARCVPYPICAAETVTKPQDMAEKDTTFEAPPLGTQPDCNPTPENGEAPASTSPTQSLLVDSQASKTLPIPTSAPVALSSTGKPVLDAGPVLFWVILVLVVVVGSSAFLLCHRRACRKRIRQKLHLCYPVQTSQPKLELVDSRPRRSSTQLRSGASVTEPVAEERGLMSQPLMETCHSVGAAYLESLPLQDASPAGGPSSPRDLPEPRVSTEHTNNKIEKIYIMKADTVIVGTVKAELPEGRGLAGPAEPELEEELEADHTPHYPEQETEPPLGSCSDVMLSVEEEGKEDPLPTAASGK
Briefly: cell-based or functional assay.

The target of assay [12] is T1, human CD30 expressed on cells (L540, …). Briefly: flow cytometry on CD30-expressing L540 cells, FITC anti-human secondary antibody.
The target is the same in assay [13]. Briefly: cell-based or functional assay. The source holds these as a separate data set.
The target is the same in assay [14]. Nature of the assay: Scatchard analysis, 125I-labelled antibody on L540 cells. As for the experimental part:
(§1) Human or cynomolgus peripheral blood cells were stimulated with 2 μg/ml PHA, 10 μg/ml Con A, and 50 U/ml rIL-2 and cultured in RPMI1640 media containing 10% fetal bovine serum (FBS) at 1×10⁶ cells/ml density for 3 days. On the day of the study, the cells were washed and adjusted to 2×10⁷ cells/ml in binding buffer (RPMI1640+10% FBS). […] The cells were placed on ice until the initiation of the experiment. Millipore glass fiber filter plates (MAFBNOB50) were coated with 1% nonfat dry milk in water and stored a 4° C. overnight. The plates were washed three times with 0.2 ml of binding buffer. Fifty microliters of buffer alone was added to the maximum binding wells (total binding). Twenty-five microliters of buffer alone was added to the control wells. Varying concentration of ¹²⁵I-anti-CD30 antibody was added to all wells in a volume of 25 μl. Varying concentrations of unlabeled antibody at 300-400 fold excess were added in a volume of 25 μl to control wells (non-specific binding) and 25 μl of CD30 positive L540 cells or stimulated human or cynomolgus peripheral blood cells in binding buffer were added to all wells. The plates were incubated for 2 hours at 200 RPM on a shaker at 4° C. At the completion of the incubation the Millipore plates were washed twice with 0.2 ml of cold wash buffer (RPMI1640, 10% FBS, 500 mM NaCl). The filters were removed and counted in a gamma counter. […]

For assay [15] the target is unchanged. Briefly: Scatchard analysis, 125I-labelled antibody on PHA/Con A/IL-2 activated human peripheral blood cells. As for the experimental part: as §1
In assay [16] the target is T2, cynomolgus CD30 on PHA, Con A and rIL-2 activated cynomolgus peripheral blood mononuclear cells (cynomolgus monkey, UniProt A0A2K5VW07 29-603).
T2 construct: whole, on cells
T2 sequence: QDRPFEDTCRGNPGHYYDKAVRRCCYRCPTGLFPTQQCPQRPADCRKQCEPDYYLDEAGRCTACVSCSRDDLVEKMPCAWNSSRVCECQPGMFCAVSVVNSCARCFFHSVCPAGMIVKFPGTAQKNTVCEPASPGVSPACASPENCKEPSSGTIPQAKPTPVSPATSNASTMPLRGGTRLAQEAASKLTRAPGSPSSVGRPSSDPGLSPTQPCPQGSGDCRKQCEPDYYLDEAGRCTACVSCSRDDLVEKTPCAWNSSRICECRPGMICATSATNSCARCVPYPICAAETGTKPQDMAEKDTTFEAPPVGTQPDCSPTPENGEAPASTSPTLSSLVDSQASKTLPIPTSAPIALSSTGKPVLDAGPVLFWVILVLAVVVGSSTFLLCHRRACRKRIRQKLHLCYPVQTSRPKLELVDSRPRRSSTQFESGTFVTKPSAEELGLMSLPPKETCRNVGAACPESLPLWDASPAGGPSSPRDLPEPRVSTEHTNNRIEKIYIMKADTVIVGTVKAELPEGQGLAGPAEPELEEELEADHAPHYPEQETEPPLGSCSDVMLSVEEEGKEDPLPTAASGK
Briefly: Scatchard analysis, 125I-labelled antibody on PHA/Con A/IL-2 activated cynomolgus peripheral blood mononuclear cells. As for the experimental part:
as §1

Where “and” joins values, the source holds several entries; their conditions need not be identical. Equal values may be shown once.

As a reminder, the Kd is a measure of binding affinity in units of concentration. Usually EC50 stands for the concentration needed to bring the measured effect to its halfway point. Low values mean a more potent agent, high ones a less potent agent. Take “fucosylated 5F11 human anti-CD30 monoclonal antibody produced in CHO DG44 cells”: in assay [1], the % Lysis, 51Cr release ADCC, Karpas cells, 25 µg/ml antibody, target:effector 1:50 was 19%; the % Lysis, 51Cr release ADCC, L428 cells, 25 µg/ml antibody, target:effector 1:50 is 20%; the % Lysis, 51Cr release ADCC, L540 cells, 25 µg/ml antibody, target:effector 1:50 was 42%; the % Lysis, 51Cr release ADCC, L1236 cells, 25 µg/ml antibody, target:effector 1:50 came to 4%. Moreover, in assay [1], the % cell lysis, ADCC, Karpas 299 cells, cynomolgus effector cells, 10 µg/mL antibody was 7% and 10%; the EC50 of ADCC, Karpas cells turned out to be 0.25 µg/mL; the EC50 of ADCC, L428 cells stood at 0.1 µg/mL; the EC50 of ADCC, L540 cells was found to be 0.042 µg/mL. Besides, in [1], the EC50 of ADCC, L540 cells, heterozygous FcRγIIIaPhe/Val^158 human effector cells worked out at 0.0589 µg/mL; the EC50 of ADCC, L540 cells, homozygous FcγIIIa Phe/Phe^158 effector cells was determined as 0.0337 µg/mL; the EC50 of ADCC, L1236 cells is 1.22 µg/mL; the maximal percent cell lysis, ADCC, L540 cells, heterozygous FcRγIIIaPhe/Val^158 human effector cells came to 31%. In [1], the maximal percent cell lysis, ADCC, L540 cells, homozygous FcγIIIa Phe/Phe^158 effector cells was 15%. This molecule yielded a Kd in assay [2] of 1.37 nM. The molecule further returned a Receptors Per Cell (ave) (receptors per cell) in assay [3] of 2.5e+06. For the same molecule, the concentration for a half-maximal effect (EC50) in assay [4] was found to be 0.18 µg/mL. For the same molecule, the Receptors Per Cell (ave) (receptors per cell) in assay [5] was 45700. Moreover, the Kd in [6] is 1.08 nM. Moreover, the Receptors Per Cell (ave) (receptors per cell) in [7] was 72800. The molecule further showed a Kd in assay [8] of 0.47 nM. Besides, in [9], the Kd was found to be 1090 nM. For the same molecule, the Kd in assay [10] came out at 177 nM.

B1: 5F11 LEX^Opt mAb (glyco-optimized 5F11 produced in Lemna minor with FucT/XylT RNAi, vector MDXA04) (antibody, V domains shown)
VH: QVQLQQWGAGLLKPSETLSLTCAVYGGSFSAYYWSWIRQPPGKGLEWIGDINHGGGTNYNPSLKSRVTISVDTSKNQFSLKLNSVTAADTAVYYCASLTAYWGQGSLVTVSS
VL: DIQMTQSPTSLSASVGDRVTITCRASQGISSWLTWYQQKPEKAPKSLIYAASSLQSGVPSRFSGSGSGTDFTLTISSLQPEDFATYYCQQYDSYPITFGQGTRLEIK
notes: N-glycans at Asn 297 are 95.8% GnGn (G0), with no fucosyl or xylosyl; also called MDXA04 derived mAb; glyco-optimized anti-CD30 mAb
B1: in assay [11], the “EC50 of ADCC, L540 cells, FcγRIIIa Phe/Phe^158 effector cells” value was 0.0199 µg/mL; the “EC50 of ADCC, L540 cells, FcγRIIIa Val/Phe^158 effector cells” value was 0.0131 µg/mL; the “fold increase in ADCC activity compared to 5F11 CHO” value was determined as 20 fold. The molecule also had an EC50 in assay [12] of 0.196 µg/mL. In assay [9], the Kd stood at 41 nM.

B2: defucosylated 5F11 human anti-CD30 monoclonal antibody produced in Ms704 (FUT8-/-) cells (antibody, V domains shown)
VH: QVQLQQWGAGLLKPSETLSLTCAVYGGSFSAYYWSWIRQPPGKGLEWIGDINHGGGTNYNPSLKSRVTISVDTSKNQFSLKLNSVTAADTAVYYCASLTAYWGQGSLVTVSS
VL: DIQMTQSPTSLSASVGDRVTITCRASQGISSWLTWYQQKPEKAPKSLIYAASSLQSGVPSRFSGSGSGTDFTLTISSLQPEDFATYYCQQYDSYPITFGQGTRLEIK
notes: also called defuc-5F11; defucosylated anti-CD30 antibody
B2: in [13], the “% Lysis ratio fucosyl-:fucosyl+, ADCC, Karpas cells” value was determined as 2.63; the “% Lysis ratio fucosyl-:fucosyl+, ADCC, L428 cells” value amounted to 2.15; the “% Lysis ratio fucosyl-:fucosyl+, ADCC, L540 cells” value came out at 1.61; the “% Lysis ratio fucosyl-:fucosyl+, ADCC, L1236 cells” value turned out to be 3.25. In [13], the “EC50 of ADCC, Karpas cells” value turned out to be 0.032 µg/mL; the “EC50 of ADCC, L428 cells” value came out at 0.009 µg/mL; the “EC50 of ADCC, L540 cells” value stood at 0.009 µg/mL; the “EC50 of ADCC, L1236 cells” value stood at 0.045 µg/mL. Moreover, in [13], the “EC50 ratio fucosyl+:fucosyl-, ADCC, Karpas cells” value stood at 7.8; the “EC50 ratio fucosyl+:fucosyl-, ADCC, L428 cells” value worked out at 11.1; the “EC50 ratio fucosyl+:fucosyl-, ADCC, L540 cells” value is 4.7; the “EC50 ratio fucosyl+:fucosyl-, ADCC, L1236 cells” value was 27.1. The molecule also showed a Kd in assay [14] of 1.93 nM. This molecule also displayed a Kd in assay [15] of 2.66 nM. The same molecule showed a Kd in assay [16] of 0.83 nM.

(Values after patent publication US20090175886A1 (Bristol-Myers Squibb, published 2009).)
